The record followed here is paper PMC4691890 (2015).

The experiment deals with horse CytC K87W (horse, UniProt P00004 1-105, K87W). Kind of experiment: ITC. (In ITC the heat of successive injections is recorded.)

B1: full-length human Apaf-1 (residues 1–1248) (natural protein)
chain: MDAKARNCLLQHREALEKDIKTSYIMDHMISDGFLTISEEEKVRNEPTQQQRAAMLIKMILKKDNDSYVSFYNALLHEGYKDLAALLHDGIPVVSSSSGKDSVSGITSYVRTVLCEGGVPQRPVVFVTRKKLVNAIQQKLSKLKGEPGWVTIHGMAGCGKSVLAAEAVRDHSLLEGCFPGGVHWVSVGKQDKSGLLMKLQNLCTRLDQDESFSQRLPLNIEEAKDRLRILMLRKHPRSLLILDDVWDSWVLKAFDSQCQILLTTRDKSVTDSVMGPKYVVPVESSLGKEKGLEILSLFVNMKKADLPEQAHSIIKECKGSPLVVSLIGALLRDFPNRWEYYLKQLQNKQFKRIRKSSSYDYEALDEAMSISVEMLREDIKDYYTDLSILQKDVKVPTKVLCILWDMETEEVEDILQEFVNKSLLFCDRNGKSFRYYLHDLQVDFLTEKNCSQLQDLHKKIITQFQRYHQPHTLSPDQEDCMYWYNFLAYHMASAKMHKELCALMFSLDWIKAKTELVGPAHLIHEFVEYRHILDEKDCAVSENFQEFLSLNGHLLGRQPFPNIVQLGLCEPETSEVYQQAKLQAKQEVDNGMLYLEWINKKNITNLSRLVVRPHTDAVYHACFSEDGQRIASCGADKTLQVFKAETGEKLLEIKAHEDEVLCCAFSTDDRFIATCSVDKKVKIWNSMTGELVHTYDEHSEQVNCCHFTNSSHHLLLATGSSDCFLKLWDLNQKECRNTMFGHTNSVNHCRFSPDDKLLASCSADGTLKLWDATSANERKSINVKQFFLNLEDPQEDMEVIVKCCSWSADGARIMVAAKNKIFLFDIHTSGLLGEIHTGHHSTIQYCDFSPQNHLAVVALSQYCVELWNTDSRSKVADCRGHLSWVHGVMFSPDGSSFLTSSDDQTIRLWETKKVCKNSAVMLKQEVDVVFQENEVMVLAVDHIRRLQLINGRTGQIDYLTEAQVSCCCLSPHLQYIAFGDENGAIEILELVNNRIFQSRFQHKKTVWHIQFTADEKTLISSSDDAEIQVWNWQLDKCIFLRGHQETVKDFRLLKNSRLLSWSFDGTVKVWNIITGNKEKDFVCHQGTVLSCDISHDATKFSSTSADKTAKIWSFDLLLPLHELRGHNGCVRCSAFSVDSTLLATGDDNGEIRIWNVSNGELLHLCAPLSEEGAATHGGWVTDLCFSPDGKMLISAGGYIKWWNVVTGESSQTFYTNGTNLKKIHVSPDFKTYVTVDNLGILYILQTLE
The molecule B1 registered a Ka of 1.24e+06 M⁻¹.
